Results reported in the supplement of paper PMC10567573.

B1: GFOD1 (parent)
chain: SDDFCTFQMVLEGGVCCTVTLNFN
B2: SAT2 (parent)
chain: IIKKVAEVALDKGCSQFRLAVLDW

Variants of: B1
Test: protein stability index of a GFP-peptide fusion (GPS, HEK-293T) (PSI 1-6); higher = more stable
Settings: c terminus: a fixed tail appended
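Also: lentivirally expressed fusions sorted by FACS into six bins by GFP to DsRed ratio, PSI derived from sequencing read proportions per bin multiplied by bin number.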

Protein stability index of substitutions, site by site:
C16: H 3.09, I 3.88, K 2.95, N 2.89, P 2.65, Q 2.45, S 3.6, T 3.75, V 2.46, W 2.8, Y 2.76
C17: A 2.49, D 1.8, E 1.21, F 3.18, H 2.13, I 2.36, K 2.52, L 3.21, N 2.77, P 2.66, Q 2.87, T 3.25, V 1.89, W 2.79
T18: A 3.01, C 2.71, D 3.76, E 3.76, F 2.37, G 3.96, H 2.14, I 3.52, L 2.5, M 2.07, N 2.33, R 1.48, V 3.91, W 1.95, Y 2.44
V19: A 1.95, C 3.15, D 2.65, E 2.11, F 2.73, G 2.02, H 2.41, I 3.22, K 1.22, L 3.49, N 2.07, P 2.12, Q 1.75, R 1.9, S 2.07, T 3.14, W 2.61, Y 2.38
T20: C 1.75, F 3.21, H 2.03, L 1.03, M 2.71, N 3.6, P 1.49, Q 3.57, W 2.71, Y 1.97
L21: A 2.61, D 1.75, E 1.63, F 2.73, G 2.41, I 3, M 2.22, N 1.35, P 2.02, Q 1.93, R 1.55, S 1.84, Y 1.69
N22: C 3.25, D 2.09, E 1.62, H 2.62, I 3.6, L 2.04, P 2.9, Q 4.04, R 2.43, W 2.88, Y 2.33
F23: A 2.62, D 2.19, E 3.16, G 2.44, H 2.43, I 3.75, L 2.8, N 4.1, P 1.56, Q 1.24, S 2.62, Y 3.05
N24: A 3.67, C 2.91, F 3.55, L 3.23, P 3, Q 1.99, R 3.43, S 2.05, T 2.47, W 3.94

Variants of: B2
Test: as above
Settings: c terminus: a fixed tail appended

Protein stability index, by site and new letter:
I1: C 2.94, D 2.44, H 2.14, K 2.02, N 1.38, Q 2.23, S 2.28, T 1.86
I2: D 1.74, F 3.61, G 1.48, H 1.33, K 2.16, M 1.32, N 2.16, P 1.03, S 1.98, W 1.81
K3: P 1.86, R 2.37
K4: E 3.05, G 1.54, P 1.31, Q 2.45, W 3.9, Y 2.95
V5: A 3.31, D 1.52, F 3.49, G 3.27, N 3.44, Y 1.04
A6: E 2.19, N 2.71, Q 1.15
E7: I 1.52, L 2.75, M 1.78, N 2.35, P 2.75, T 2.79, Y 2.64
V8: C 1.99, E 1.2, H 2.58, K 1.6, M 2.59, N 2.01, P 1.7, Q 2.94, W 2.76
A9: F 2.31, I 2.87
